Data as given in the RNAGym collection of RNA variant scans (doi:10.1073/pnas.2313332121).

B1: TPR t1 (parent)
chain: GACCAAUCUGCCCUCAGAGCUCGAGAACAUCUUCGGAUGCAGAGGAGGCAGGCUUCGGUGGCGCGAUAGCGCCAACGUCCUCAACCUCCAAUGCAUCCCACCACAUGAUGAUGCCUGAAGAGCCUUGGUUUUUUG

Variants of: B1
Assay: polymerase ribozyme fitness, log enrichment relative to wild type (log ratio); higher = more active; in vitro selection for triplet polymerase activity
Method in brief: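 After PCR construction and transcription, each subunit's mutant library from a heterodimeric triplet polymerase ribozyme was annealed with a biotinylated primer, the partner subunit and triplets. Incubation was frozen, at −7 °C, and extended constructs were gel-excised, bound to streptavidin beads and amplified by RT-PCR, in one selection round done in triplicate. Fitness is the logarithm of a genotype's enrichment divided by that of the wild type, from inverse-variance-weighted replicate averages of Illumina-sequenced inputs and outputs. The base of the logarithm is 2, and genotypes needed ≥10 input reads and ≥1 read per output.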

Compared with GACCAACCUGCCCUCAGAGCUCGAGAACAUCUUCGGAUGCAGAGGAGGCAGGCUUCGGUGGCGCGAUAGCGCCAACGGCCUGAACCUCCAAUGCAUCCAACCACAUGAUGAGGCCUGAAGAGCCUUGUUUUUUUG [U7C U78G C82G C99A U112G G128U], GACCAACCUGCCCUCAGAGCUCGAGAACAUCUUCGGAUGCAGAGGAGGCAGGCUUCGGUGGCGCGAUAGCGCCAACGUCCUCAACCUCCAAUGCAUCCCACCACACGAUGAUGCCUGAAGAGCCUUGGUUUUUUG [U7C U106C] is higher in “polymerase ribozyme fitness (log ratio)” value: -5.9 for the first, -0.478 for the second.

First: GACCAAGCUGCCCUCUGAGCUCGAGAACAUCUUCGGAUGCAGUGGAGGUAGGCUUCGGUGGCGCGAUAGAGCCAACGUCCUCAACCUCAAAUGCAUCCCACCACAUGAUGAUGCCGGAAGAGCCUUGGUUUUUUG [U7G A16U A43U C49U C70A C89A U116G]
Second: GACCAAGCUGCCCUCAGUGCUCGAGAACAUCUUCGGAUGCAGAGGAGGCAGGCUUCGGUGGCGCGAUAGCGCCAACGUCCUCAACCUCCAAUGCAUCCCACCACAUGAUGAUGCCUGAAGUGCCUUGGUUUUUUG [U7G A18U A121U]
The “polymerase ribozyme fitness (log ratio)” value of the first is lower: -4.88 for the first, 0.525 for the second.

First: GACCAAGCUGCCCUCAGAGCUCGUGAACAUCUUCGGAUGCAGAGGAGGCAGGCUUCGGUGGCGCGAUAGCGCCAACGUCCUCAACCUCCAAUGCAUCCCACGACAUGAAGAUGCCUGAAGAGCCUUGGUUUUUUG [U7G A24U C102G U109A]
Second: GACCAAGCUGCCCUCAGAGCUCGAGAACCUCUUCGGAUGCAGAGGAGGCAGGCUUCGGUGGCGCGAUAGCGACAACGUCCUAAACCUCCAAUGCAUCCCACCACAUGAUGAUGCCUGAACAGCCUUGGUUUUUUG [U7G A29C C72A C82A G120C]
The “polymerase ribozyme fitness (log ratio)” value of the first is lower: -4.85 for the first, -0.586 for the second.

Going from GACCAAGCUGCCCUCAGAGCUCGAGAACUUCUUCGGAUGCAGAGGAGGCAGGCUUAGGUGGCGCGAUAGCGCCAAUGUCCUCAACCUCCAAUGCAUCCCACCACAUGAUGAUGCCUGAAGAGCCUUGGUUUUUUG [U7G A29U C56A C76U] to GACCAAGCUGCCCUCAGAGCUCGAGAACAUCUUCGGCUGCAGAGGAGGCAGGCUUCGGUGGCGCGAUAGCGCCAACGUCCUCAACCUCCAAUGCCUCCCACCACAUGAUGAUGCCUGAAGAGCCUUGGUUUUUUG [U7G A37C A95C], the “polymerase ribozyme fitness (log ratio)” value rises from -1.78 to 0.483.

Compared with GACCAAGCUGCCCUCAGAGCUCGAGAACAUCUUCGGAUGCGGAGGAGGCAGGAUUCGGUGGCGCGAUAGCGGCAACGUUCUCAACCUCCUAUGCAUCCCACCACAUGAUGCUGCCUGAAGAGCCUUGGUUUUUUG [U7G A41G C53A C72G C79U A90U A111C], GACCAAGCUGCCCUCAGAGCUCGAGAACAUCUUCGGAUGCAGAGGUGGCAGGCUUCGGUGCCGCGAUAGCGCCAACGUCCUCAACCUCCAAUGCAUCCCACCACAUGAUGAAGCCUGAAGAGCCUUGGUUUUUUG [U7G A46U G61C U112A] is higher in “polymerase ribozyme fitness (log ratio)” value: -2.28 for the first, -1.98 for the second.

First: GACCAAGCUGCCCUCAGAGCUCGAGAACAUCUUCGGAUGCAGAGGUGGCAGGCUUCGGUGGCCCGAUAGCGCCAACGUCCUCAACCUCCAAUGCAUCCCACAAAAUGAUGUUGCCUGAAGAGCCUUGCUUUUUUG [U7G A46U G63C C102A C104A A111U G128C]
Second: GACCAAGCUGCCCUCAGAGCUCGAGAACAUCUUCGGAUGCAGAGGAGGCAGGCUUCGGUGGCGCGAUAGCGCCAACGUCCUCUACCUCCAAUGCAUCCCACCACAUGAUGAUGCCUGAAGAGCCUUGGUUUUUUG [U7G A83U]
The “polymerase ribozyme fitness (log ratio)” value of the first is lower: -7.59 for the first, -0.221 for the second.

GACCAAGCUGCCCUCAGAGCUCGAGAACAUCUUCGGAUGCAGAGGAGGCAGGCUUCGGUGGCGCGAUAGCGCCAACGUCCUCUACCACCAAUGCUUCCCACCACAUGAUGAUGCCUGAAGAGCAUUGGUUUUUUG [U7G A83U U87A A95U C124A] and GACCAAGCUGCCCUCAGAGCUCGAGAACAUCUUCGGAUGCAGAGGAGGCAGGCUUCGGUGGCGCGAUAGCGCCAACGUCCUCAGCCUCCAAUGCAUCCCACCACAUGAUGAUGCCUGAAGAGCCUUGGUUUUGUU [U7G A84G U133G G135U] are within 0.2 log units of each other in “polymerase ribozyme fitness (log ratio)” value: 0.494 for the first, 0.51 for the second.

Going from GACCAAGCUGCCCUCAGAGCUCGAGAACAUCUUCGGAUGCAGAGGAGGCAGGCUUCGGUGGCGCGAUAGCGCCAACGUCCUCAACCUCCAAUGCGUCCCACCACAUGAUGAUGCCUGAAGAGCCUUGGUUUUUUG [U7G A95G] to GACCAAGCUGCCCUCAGAGCUCGAGAACAUCUUCGGAUGCAGAGGAGGCAGGCUUCGGUGGCGCGAUAGCGCCAACGUCCUCAACCUCCAAUGCAUCCCACCCCAUGAUGAUGCCUGAAAAGCCUUGGUUUUUUG [U7G A103C G120A], the “polymerase ribozyme fitness (log ratio)” value falls from 0.461 to -2.83.

Compared with GACCAAGCUGCACUCAGAGCUCGAGAACAUCUUCGGAUGCAGUGGAGGCAGGCUUCGGUGGCGCGAUAGCGCAAACGUCCUCAACCUCCAAUGCAUCCCACCACAUGAUGAUGCCUGAAGAGCCUUGGUUUUUUG [U7G C12A A43U C73A], GACCAAGCUGCACUCAGAGCUCGAGAACAUCUUCGGAUGCAGAGGAGGCAGGCUUCGGUGGCGCGAUAGCGCCAACGUCCUCAACCUCCAAUGCAUUCCACCACAUGAUGAUGCCUCAAGAGCCUUGGUUUUUUG [U7G C12A C97U G117C] is lower in “polymerase ribozyme fitness (log ratio)” value: -1.44 for the first, -3.54 for the second.

First: GACCAAGCUGCGCUCAUAGCGCGAGAACAUCUUCGGAUGCAGAGGAGGCAGGCUUCGGUGGCGCGAUAUCGCCAACGUCCUCAACUUCCAAUGCAUCCCACCACAUGAUGAUGCCUGAAGAGCAUUGGUUUUUUG [U7G C12G G17U U21G G69U C86U C124A]
Second: GACCAAGCUGCCGUCAGAGCUCGAGAACAUCUUCGGAUGCAGAGGAGGCAGGCUUCGGUGGCGCGAUAGCGCCAACGUCCUCAACCUCCAAUGCAUCCCACCACAUGAUGAUGCCUGAAGAGCCUUGGUUUUUUG [U7G C13G]
The “polymerase ribozyme fitness (log ratio)” value of the first is lower: -6.15 for the first, 0.14 for the second.

For GACCAAGCUGCCCUCAGAGAUCGAGAACAUCUUCGGAUACAGAGGAGGGAGGCUUCGGUGCCGCGAUAGCGCCAACGUCCUCAACCUCCAAUGCAUCCCACCACAUGAUGAUGCCUGAAGGGCCUUGGUUUUUUG [U7G C20A G39A C49G G61C A121G], the “polymerase ribozyme fitness (log ratio)” value was -3.89.
